Test results: patent US20230227568A1 (Pieris, published 2023)
Read-outs that look alike come from different tables or passages of the source. Values belong to the binder of their own block, whether it stands above or below them.

Experiments:
hu4-1BB-Fc (R&D Systems) = biological target: T1, hu4-1BB-Fc (R&D Systems) (human, UniProt Q07011 24-186); experiment: SPR (Biacore 8K), hu4-1BB-Fc captured by anti-human IgG Fc; apparent value, 1:1 fit
T1 construct: Bought; also called human 4-1BB; not shown: human IgG Fc of the bought fusion
Protocol: The anti-human IgG Fc antibody (GE Healthcare) was immobilized on a CM5 sensor chip using standard amine chemistry: the carboxyl groups on the chip were activated using 1-ethyl-3-(3-dimethylaminopropyl)-carbodiimide (EDC) and N-hydroxysuccinimide (NHS). Subsequently, anti-human IgG Fc antibody solution (GE Healthcare) at a concentration of 25 μg/mL in 10 mM sodium acetate (pH 5.0) was applied at a flow rate of 5 μL/min until an immobilization level of 4000-10000 resonance units (RU) was achieved. Residual non-reacted NHS-esters were blocked by passing a solution of 1 M ethanolamine across the surface. The reference channel was treated in an analogous manner. Subsequently, hu4-1BB-Fc (R&D Systems) at 0.3 μg/mL was captured by the anti-human IgG-Fc antibody at the chip surface for 180 s at a flow rate of 10 μL/min.
The binding assay was carried out with a contact time of 180 s, a dissociation time of 1200 s or 3000 s and a flow rate of 30 μL/min. All measurements were performed at 25° C. Lipocalin mutein SEQ ID NO: 64 as included in the multimeric proteins was also tested as […]. […] Prior to the protein measurements, three startup cycles were performed for conditioning purposes. Data were evaluated with Biacore Evaluation software. Double referencing was used and the 1:1 binding model was used to fit the raw data.

[1] = biological target: T2, human GPC3 on HepG2 cells (human, UniProt P51654 25-554); experiment: flow cytometry on HepG2 cells (human GPC3), anti-NGAL detection, GeoMean BL1-H [Cont'd) C]
T2 construct: whole, on cells; Endogenous GPC3 of the tumor cell line; also called GPC3-positive tumor cell line HepG2; human GPC3-expressing HepG2 cells
T2 sequence (P51654 25-554 limits assumed): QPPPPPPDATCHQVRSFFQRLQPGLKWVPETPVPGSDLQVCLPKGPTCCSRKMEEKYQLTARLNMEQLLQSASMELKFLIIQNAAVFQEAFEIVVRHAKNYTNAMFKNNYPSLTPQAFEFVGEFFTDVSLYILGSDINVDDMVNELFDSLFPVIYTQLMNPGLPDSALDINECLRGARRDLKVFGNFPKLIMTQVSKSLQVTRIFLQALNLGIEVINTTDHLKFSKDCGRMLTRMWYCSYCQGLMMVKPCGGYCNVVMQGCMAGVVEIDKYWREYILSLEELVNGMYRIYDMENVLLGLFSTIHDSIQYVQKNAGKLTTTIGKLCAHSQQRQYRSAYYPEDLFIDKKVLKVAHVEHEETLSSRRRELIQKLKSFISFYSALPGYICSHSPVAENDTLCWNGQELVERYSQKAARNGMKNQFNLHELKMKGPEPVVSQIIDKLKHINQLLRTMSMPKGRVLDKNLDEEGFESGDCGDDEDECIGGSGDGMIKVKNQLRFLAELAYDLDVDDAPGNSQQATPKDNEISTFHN
Protocol: GPC3-positive tumor cell line HepG2 was cultured in Dulbecco's Modified Eagle's Medium ([…], Pan Biotech) supplemented with 10% Fetal Calf Serum (Sigma-Aldrich) and in cell culture flasks according to manufacturer's instruction (37° C., 5% CO₂ atmosphere).
(§1) 5×10⁴ cells per well were incubated for 1 h in ice-cold PBS containing 5% fetal calf serum (PBS-FCS). A dilution series of the tested multimeric proteins (SEQ ID NOs: 38-44 and 46-55), the 4-1BB-targeting lipocalin mutein as included in the multimeric proteins (SEQ ID NO: 64) or the GPC3-targeting lipocalin SEQ ID NO: 90 were added to the cells and incubated for 1 h on ice. Cells were washed twice with PBS and then incubated with a rabbit anti-NGAL or a goat anti-human IgG labeled with fluorescent dye Alexa 488 for 30 min on ice. Human IgG4 isotype (SEQ ID NOs: 29 and 30) and lipocalin mutein SEQ ID NO: 8 were tested as a negative control. Cells were subsequently washed and analyzed using iQue Flow cytometer (Intellicyte Screener). Mean geometric fluorescent signals were plotted and fitted with Graphpad software using nonlinear regression (shared bottom, four parameters, variable slope).

[2] = biological target: T3, recombinant hu4-1BB-His (human 4-1BB with a C-terminal polyhistidine tag, R&D Systems) (human, UniProt Q07011 24-186); experiment: ELISA, hu4-1BB-His coated, detection anti-NGAL-HRP
T3 construct: Bought; not shown: C-terminal polyhistidine tag
Protocol: Recombinant hu4-1BB-His (human 4-1BB with a C-terminal polyhistidine tag, R&D Systems) at the concentration of 1 μg/mL in PBS was coated overnight on microtiter plates at 4° C. After washing with PBS-0.05% T (PBS supplemented with 0.05% (v/v) Tween 20), the plates were blocked with 2% BSA (w/v) in PBS-0.1% T (PBS supplemented with 0.1% (v/v) Tween 20) for 1 h at room temperature. After washing with 100 μL PBS-0.05% T five times, exemplary multimeric proteins (SEQ ID NOs: 38-44 and 46-53) or 4-1BB-specific lipocalin mutein as included in the multimeric protein (SEQ ID NO: 64) at different concentrations, ranging from 100 to 0.002 nM, were added to the wells and incubated for 1 h at room temperature, followed by another wash step. Bound molecules under study were detected by incubation with 1:1000 diluted anti-NGAL-HRP in PBS-0.1% T-2% BSA. After an additional wash step, fluorogenic HRP substrate (QuantaBlu, Thermo) was added to each well and the fluorescence intensity was detected using a fluorescence microplate reader.
The results of exemplary experiments are depicted in FIG. 2, together with the fit curves resulting from a 1:1 binding sigmoidal fit, where the EC₅₀ value and the maximum signal were free parameters, and the slope was fixed to one. The observed EC₅₀ values toward the hu4-1BB of all tested multimeric proteins were in the sub nanomolar range.

[3] = biological target: T4, cynomolgus 4-1BB on CHO cells (cynomolgus, UniProt A9YYE7 24-254); experiment: flow cytometry, Flp-In-CHO::cyno4-1BB cells
T4 construct: also called Flp-In-CHO::cyno4-1BB; cynomolgus 4-1BB-expressing CHO cells
T4 sequence (A9YYE7 entry or part of it limits assumed): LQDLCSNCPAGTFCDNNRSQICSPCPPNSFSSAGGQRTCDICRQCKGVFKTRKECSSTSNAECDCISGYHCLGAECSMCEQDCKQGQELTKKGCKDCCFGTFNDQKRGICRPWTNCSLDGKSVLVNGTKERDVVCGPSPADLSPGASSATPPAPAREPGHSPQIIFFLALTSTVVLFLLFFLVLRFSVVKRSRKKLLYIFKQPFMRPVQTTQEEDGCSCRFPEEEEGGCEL
Protocol: (§2) CHO cells were stably transfected with human 4-1BB, cynomolgus 4-1BB, or a mock control using the Flp-In system (Life Technologies) according to the manufacturer's instructions. Transfected CHO cells were maintained in Ham's F12 medium (Life Technologies) supplemented with 10% Fetal Calf Serum (Biochrom) and 500 μg/ml Hygromycin B (Roth). Cells were cultured in cell culture flasks according to manufacturer's instruction (37° C., 5% CO₂ atmosphere).
as §1

human 4-1BB on cells [4] = biological target: T5, human 4-1BB on cells (human, UniProt Q07011 24-255); experiment: flow cytometry, Flp-In-CHO::hu4-1BB cells
T5 construct: whole, on cells; Stably transfected CHO cells (flow cytometry) and bought Jurkat reporter cells (bioassay); also called Flp-In-CHO::hu4-1BB; human 4-1BB-expressing CHO cells
T5 sequence (Q07011 24-255): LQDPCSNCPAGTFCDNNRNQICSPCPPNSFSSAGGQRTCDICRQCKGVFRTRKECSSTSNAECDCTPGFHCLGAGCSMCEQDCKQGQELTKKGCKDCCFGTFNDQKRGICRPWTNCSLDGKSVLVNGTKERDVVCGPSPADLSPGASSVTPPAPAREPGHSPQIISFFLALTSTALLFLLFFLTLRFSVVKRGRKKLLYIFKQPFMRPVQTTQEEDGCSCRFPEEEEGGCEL
Protocol: as §2, §1

human OX40 on cells = biological target: T6, human OX40 on cells (human, UniProt P43489 29-277); experiment: flow cytometry, Flp-In-CHO::huOX40 cells
T6 construct: whole, on cells; Stably transfected CHO cells (flow cytometry) and bought Jurkat reporter cells (OX40 bioassay); also called Flp-In-CHO::huOX40; human OX40-expressing CHO cells
T6 sequence (looked up): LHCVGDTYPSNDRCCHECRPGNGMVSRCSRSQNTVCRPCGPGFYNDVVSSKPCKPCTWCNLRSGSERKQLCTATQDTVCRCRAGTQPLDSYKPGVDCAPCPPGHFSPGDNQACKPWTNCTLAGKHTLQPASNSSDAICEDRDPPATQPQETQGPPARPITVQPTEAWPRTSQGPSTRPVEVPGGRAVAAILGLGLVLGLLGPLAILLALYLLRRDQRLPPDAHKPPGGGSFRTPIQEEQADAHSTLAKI
Protocol: as §1
(§3) Target-specific binding of hexavalent trimeric proteins to human 4-1BB-, OX40- or PD-L1-expressing cells was assessed by flow cytometry as described in Example 5, using CHO cells stably transfected with human 4-1BB, human OX40 or human PD-L1 (Flp-In system; Life Technologies).

human 4-1BB on cells [5] = biological target: T5, human 4-1BB on cells; experiment: flow cytometry, Flp-In-CHO::hu4-1BB cells; remark: listed apart in the source
Protocol: as §1, §3

human 4-1BB on cells [6] = biological target: T5, human 4-1BB on cells; experiment: flow cytometry on Flp-In-CHO::huCD137 (human 4-1BB) cells, anti-NGAL detection, GeoMean BL1-H
Protocol: as §2, §1

[7] = biological target: T4, cynomolgus 4-1BB on CHO cells; experiment: flow cytometry on Flp-In-CHO::cyCD137 (cynomolgus 4-1BB) cells, anti-NGAL detection, GeoMean BL1-H [Cont'd) B]
Protocol: as §2, §1

B1: 4-1BB-specific lipocalin mutein SEQ ID NO: 64 (designed binder)
chain: QDSTSDLIPAPPLSKVPLQQNFQDNQFHGKWYVVGQAGNIRLREDKDPIKMMATIYELKEDKSYDVTMVKFDDKKCMYDIWTFVPGSQPGEFTLGKIKSFPGHTSSLVRVVSTNYNQHAMVFFKFVFQNREEFYITLYGRTKELTSELKENFIRFSKSLGLPENHIVFPVPIDQCIDG
notes: Monomeric hNGAL mutein; also called 4-1BB-targeting lipocalin mutein as included in the multimeric proteins
- Kd (hu4-1BB-Fc (R&D Systems)): 0.76 nM
- koff (hu4-1BB-Fc (R&D Systems)): 7.08e-05 s⁻¹
- kon (hu4-1BB-Fc (R&D Systems)): 92700 M⁻¹ s⁻¹
- binding result [1]: no binding (tested: about 200 nM)
- EC50 [2]: 0.41 nM
- binding result [3]: no binding
- EC50 (human 4-1BB on cells [4]): 3.99 nM

B2: bispecific hexavalent trimeric protein SEQ ID NO: 165 (designed binder)
chain: QDSTSDLIPAPPLSKVPLQQNFQDNQFHGKWYVVGQAGNIRLREDKDPIKMMATIYELKEDKSYDVTMVKFDDKKCMYDIWTFVPGSQPGEFTLGKIKSFPGHTSSLVRVVSTNYNQHAMVFFKFVFQNREEFYITLYGRTKELTSELKENFIRFSKSLGLPENHIVFPVPIDQCIDGGGGGSGGGGSGGGGSQDSTSDLIPAPPLSKVPLQQNFQDSQFQGKWYVVGFAGNYRLREDKDPGKMQATIYELREDKAYQVTGVLFPHKKCHDDIVIFVPGSQPGEFILGWIKSDPGITSDLVRVVSTDYNQHAMVFFKWVFQNREWFYITLYGRTKALTSELKENFIRFSKSLGLPEDHIVFPVPIDQCIDGGGGGSGGGGSGGGGSGVRLWATRQAMLGQVHEVPEGWLIFVAEQEELYVRVQNGFRKVQLEARTPLGGSGGAPEQKLISEEDLGSHHHHHHHHHH
- EC50 (human OX40 on cells): 0.18 nM
- EC50 (human 4-1BB on cells [5]): 2.19 nM

B3: bispecific hexavalent trimeric protein SEQ ID NO: 164 (designed binder)
chain: QDSTSDLIPAPPLSKVPLQQNFQDNQFHGKWYVVGQAGNIRLREDKDPIKMMATIYELKEDKSYDVTMVKFDDKKCMYDIWTFVPGSQPGEFTLGKIKSFPGHTSSLVRVVSTNYNQHAMVFFKFVFQNREEFYITLYGRTKELTSELKENFIRFSKSLGLPENHIVFPVPIDQCIDGGGGGSGGGGSGGGGSGVRLWATRQAMLGQVHEVPEGWLIFVAEQEELYVRVQNGFRKVQLEARTPLGGGGSGGGGSGGGGSQDSTSDLIPAPPLSKVPLQQNFQDSQFQGKWYVVGFAGNYRLREDKDPGKMQATIYELREDKAYQVTGVLFPHKKCHDDIVIFVPGSQPGEFILGWIKSDPGITSDLVRVVSTDYNQHAMVFFKWVFQNREWFYITLYGRTKALTSELKENFIRFSKSLGLPEDHIVFPVPIDQCIDGGGSGGAPEQKLISEEDLGSHHHHHHHHHH
- EC50 (human OX40 on cells): 0.71 nM
- EC50 (human 4-1BB on cells [5]): 3.03 nM

Other lines, results leading:

- EC50 (read off the curve) (human 4-1BB on cells [6]): ~2 nM
- Kd (hu4-1BB-Fc (R&D Systems)): 1.18 nM
- koff (hu4-1BB-Fc (R&D Systems)): 9.75e-05 s⁻¹
- kon (hu4-1BB-Fc (R&D Systems)): 82300 M⁻¹ s⁻¹
- EC50 (read off the curve) [7]: ~1 nM
- EC50 [2]: 0.18 nM
B4: multimeric protein SEQ ID NO: 40 (designed binder)
chain: QDSTSDLIPAPPLSKVPLQQNFQDNQFHGKWYVVGQAGNIRLREDKDPIKMMATIYELKEDKSYDVTMVKFDDKKCMYDIWTFVPGSQPGEFTLGKIKSFPGHTSSLVRVVSTNYNQHAMVFFKFVFQNREEFYITLYGRTKELTSELKENFIRFSKSLGLPENHIVFPVPIDQCIDGGGGGSGGGGSGGGGSGGGGSGGGGSGVRLWATRQAMLGQVHEVPEGWLIFVAEQEELYVRVQNGFRKVQLEARTPLGGSGGAPEQKLISEEDLGSHHHHHHHHHH

- EC50 (human OX40 on cells): 0.56 nM
- EC50 (human 4-1BB on cells [5]): 4.51 nM
B5: bispecific hexavalent trimeric protein SEQ ID NO: 166 (designed binder)
chain: QDSTSDLIPAPPLSKVPLQQNFQDSQFQGKWYVVGFAGNYRLREDKDPGKMQATIYELREDKAYQVTGVLFPHKKCHDDIVIFVPGSQPGEFILGWIKSDPGITSDLVRVVSTDYNQHAMVFFKWVFQNREWFYITLYGRTKALTSELKENFIRFSKSLGLPEDHIVFPVPIDQCIDGGGGGSGGGGSGGGGSQDSTSDLIPAPPLSKVPLQQNFQDNQFHGKWYVVGQAGNIRLREDKDPIKMMATIYELKEDKSYDVTMVKFDDKKCMYDIWTFVPGSQPGEFTLGKIKSFPGHTSSLVRVVSTNYNQHAMVFFKFVFQNREEFYITLYGRTKELTSELKENFIRFSKSLGLPENHIVFPVPIDQCIDGGGGGSGGGGSGGGGSGVRLWATRQAMLGQVHEVPEGWLIFVAEQEELYVRVQNGFRKVQLEARTPLGGSGGAPEQKLISEEDLGSHHHHHHHHHH
